Data: paper PMC3524506

Test system: OmpR-P-His6 (phosphorylated) (Yersinia enterocolitica O9 Ye9?)
Test: EMSA
Details: 40 mM Tris-HCl pH 8.0, 100 mM KCl, 10 mM MgCl2, 5% glycerol, room temperature 30 min, scale: fold lower minimum binding amount than non-phosphorylated OmpR

**Q.** With inv promoter fragment 553 bp as the substance, how does the binding signal read?
**A.** The binding signal was 3.
